Test results taken from patent US20210062171A1, “NOVEL SIALIDASES AND USES THEREOF” (The Regents of the University of California, priority 2019, published 2021).
“Also recorded” adds a separate entry of the source.

Legend:
Type in all cases: biochemical
[1] = In vitro sialidase activity assay on mixed WT and Cmah−/− mouse serum (DMB derivatization, HPLC); conditions: purified enzyme 0.5-10 μg; pH 6.5, 7.0 and 8.0; 1 hour at 37° C.
Experimental: Bin13 sialidases were tested for Neu5Gc release. Each of the five sialidases genes in bin13 were PCR amplified (FIG. 12) and heterologously expressed in vitro, purified, and assayed for its substrate preference. Sialidase activity measurements were performed using different enzyme concentrations (0.5-10 μg) at three different pH levels (6.5, 7.0, and 8) (FIGS. 3A, 13). […] Additionally, we tested in vivo sialidase activity in fresh fecal samples. Clarified fecal pellets from mice fed with PSM tend to preferentially release Neu5Gc compared to clarified fecal pellets from mice fed with Soy (FIG. 3D).
Sialidases purified as described above were quantified using SDS-PAGE image analysis with BSA references (Bio-Rad) and absorbance using the Nanophotometer P330 (Implen), with extinction coefficients calculated using ExPASy Translate. […] The samples were kept at −20° C. until derivatization and analyzed by HPLC as described below. […] The DMB-derivatized samples were analyzed on a Dionex Ultra3000 HPLC System using a Phenomenex Gemini 5μ C18 250×4.6-mm HPLC column at room temperature, eluted in isocratic mode with 85% water, 7% methanol, 8% acetonitrile. […]

[2] = Sialidase activity on food sources (Neu5Gc release); conditions: 2 μg enzyme, 2 h at 37° C., Tris-HCl pH 7; beef, pork, PSM chow
Source text: Fecal shotgun metagenomes from the Hadza people (Table 4), a genetically distinct indigenous ethnic group that resides in remote Tanzania was reanalyzed. The Hadza are hunter-gatherers and change their diet periodically throughout the year according to food availability. In dry seasons, their diet is enriched in meat and tubers, whereas in wet seasons it consists largely of honey and berries. Raw reads from Hadza metagenomes were mapped to bin13. […] To evaluate the sialidases genes present in the Hadza microbiome, the combined metagenomes were co-assembled and 24 genome bins containing 51 sialidase genes were identified (FIG. 17, Table 5). The binHz19, whose closest relative was Alistipes sp., was equally abundant in microbiomes from both seasons (FIG. 2B, Table 5). […] This difference supports the notion that sialidaseHz136 is capable of metabolizing structurally diverse glycans, a concept that would be of benefit to an individual with seasonal variations in diet. To additionally determine if sialidase26 and sialidaseHz136 can release Neu5Gc from food sources directly, we test their activity on beef, pork, and PSM chow as substrate.
Beef (New York Steak) and pork (breakfast sausage) were purchased at Whole Foods Market and cut in small pieces using sterile blades. PSM chow was powdered using mortar and pestle. […]

[3] = Fluorogenic sialidase assay with 4MU-α-Neu5Ac; conditions: compost metagenomic fosmid clones in E. coli, fluorescence λex=365 nm, λem=445 nm
Experimental: (§1) Following the enzyme selection process, clones showing activity were tested subsequently and re-tested for their ability to cleave 4MU-α-Neu5Ac. […] The DNA sequence of cloned inserts from C19 and C22 each encoded a single bacterial sialidase gene.
The compost metagenomic library (theoretically encoding ˜215,000 environmental genes) was differentially screened with fluorogenic 2′-(4-methylumbelliferyl)-α-D-N-glycolylneuraminic acid (4MU-α-Neu5Gc) (Sussex Research, Ottawa, CA) and 2′-(4-methylumbelliferyl)-α-D-N-acetyineuraminic acid 4MU-α-Neu5Ac (Toronto Research Chemicals, Toronto, CA) substrates. In a primary screen, library clones were grown in 384-well plates containing 50 μL LB liquid cultures (10 g tryptone. 5 g yeast extract, 10 g NaCl, 1 g dextrose, 1 g MgCl2-6H2O, 2 mL of 2M NaOH per liter, containing chloramphenicol 12.5 μg/mL and 1× inducing solution (Lucigen Corporation)) overnight at 37° C. […] Fluorescence at λex=365 nm and λem=445 nm was read with a SpectraMax Plus 384 Microplate Reader (Molecular Devices, Sunnyvale, Calif.) at 6 h, 24 h and 48 h. Positive clones were defined as those showing fluorescence greater than 3 standard deviations above the mean background, and each was re-archived in a fresh 384-well plate in sterile 20% (v/v) glycerol. […]

[4] = Fluorogenic sialidase assay with 4MU-α-Neu5Gc; conditions: for Hydrolysis of 4MU-α-Neu5Gc: compost metagenomic fosmid clones in E. coli, fluorescence λex=365 nm, λem=445 nm; for Preference for Neu5Gc hydrolysis compared to known bacterial exo-sialidases: in vitro, 4MU-α-Neu5Gc versus 4MU-α-Neu5Ac, comparators Au, Cp, Mv, St, Vc sialidases
Source text: To determine if Neu5Gc-specific sialidases are restricted to enteric bacteria, we utilized functional metagenomic screening to identify exo-sialidases with a Neu5Gc specificity in a terrestrial environment. A fosmid library containing ˜40 kb inserts of total environmental DNA isolated from soil from an organic composting facility was constructed in E. coli Lysates from 5,376 clones were screened for hydrolysis of 4MU-α-Neu5Gc. During environmental DNA extraction 100, environmental samples 102 are collected and environmental DNA 104 is extracted. DNA extraction is followed by metagenomics library production 110 where fosmid vectors 112 are ligated with environmental DNA to produce plasmids 114 that are transfected into E. coli cells 116. During functional screening 120, one clone 122 is present per well in a well plate and hits 124 are selected by a means known in the art. Following functional screening 120, hits 132 are sequenced during a sequencing step 130 using any method for sequencing known in the art. Gene prediction and database comparison 140 is used to identify enzyme candidates 142; the enzyme candidates are expressed and characterized 150 in plasmids 152, which are transfected into E. coli and expressed as enzymes 154 for further characterization and/or use.
as §1
The compost metagenomic library (theoretically encoding ˜215,000 environmental genes) was differentially screened with fluorogenic 2′-(4-methylumbelliferyl)-α-D-N-glycolylneuraminic acid (4MU-α-Neu5Gc) (Sussex Research, Ottawa, CA) and 2′-(4-methylumbelliferyl)-α-D-N-acetyineuraminic acid 4MU-α-Neu5Ac (Toronto Research Chemicals, Toronto, CA) substrates. In a primary screen, library clones were grown in 384-well plates containing 50 μL LB liquid cultures (10 g tryptone. 5 g yeast extract, 10 g NaCl, 1 g dextrose, 1 g MgCl2-6H2O, 2 mL of 2M NaOH per liter, containing chloramphenicol 12.5 μg/mL and 1× inducing solution (Lucigen Corporation)) overnight at 37° C. Fifty microliters of Y-per lysis buffer (Thermo Fischer Scientific, Waltham, Mass.) containing 40 μg/mL of 4MU-α-Neu5Gc was added to each well. The mixtures were incubated overnight at 37° C. in a static incubator. Fluorescence at λex=365 nm and λem=445 nm was read with a SpectraMax Plus 384 Microplate Reader (Molecular Devices, Sunnyvale, Calif.) at 6 h, 24 h and 48 h. Positive clones were defined as those showing fluorescence greater than 3 standard deviations above the mean background, and each was re-archived in a fresh 384-well plate in sterile 20% (v/v) glycerol. […]

Molecule	Substrate preference, Neu5Gc versus Neu5Ac release [1]	Release of Neu5Gc from food [2]	Activity on 4MU-α-Neu5Ac [3]	Hydrolysis of 4MU-α-Neu5Gc [4]	Preference for Neu5Gc hydrolysis compared to known bacterial exo-sialidases [4]
sialidase26: Bin13 GH33 sialidase from mouse gut metagenome, SEQ ID NO. 4, PDB 6MRX (protein, Environmental sample, 4, PDB 6MRX) MKKNLFLSIIFSFCVILQAFASDTVFVRETQIPVLIERQDNVLFMLRLNAKESHTLDEVVLNFGKDVNMSDIQSVKLYYSGTEARQNYGKNFFAPVSYISSHTPGKTLAANPSYSINKSQVNNPKRKVALKANQKLFPGINYFWISLQMKPDASLLDKVAAKIAAIKVDNKEALMHTVSPENIVHRVGVGVRHAGDDGSASFRIPGLVTTNKGTLLGVYDVRYNNSADLQEHVDIGLSRSVDGGKTWEKMRLPLAFGETGDLPAAQNGVGDPSILVDTKTNTVWVVAAWTHGMGNQRAWWSSYPGMDMNHTAQLVLSKSTDDGKTWSKPINITEQVKDPSWYFLLQGPGRGITMQDGTLVFPIQFIDSTRVPNAGIMYSKDRGETWKIHNYARTNTTEAQVAEVEPGVLMLNMRDNRGGSRAISTTKDLGKTWTEHSSSRKALQEPVCMASLISVKAKDNVLNKDILLFSNPNTVKGRHHITIKASLDGGVTWLPEHQVMLDEGEGWGYSCLTMIDKETIGILYESSVAHMTFQAVQLRDIIK	preference for Neu5Gc	pronounced sialidase activity by releasing Neu5Gc from all food tested			
sialidaseHz136: Sialidase from binHz19 of Hadza shotgun metagenome, SEQ ID NO. 6, PDB 6MNJ (protein, Environmental sample, 6, PDB 6MNJ) MMKRTFWLIALSLLSLTLSASDSLRIHNPQIPILLDRMDNVLFLIRVPDAVQGNVLESLTVEFGPDTDLNSIAELRLFYSGTEAVRRQGLRFSPVEYISAHNVWNTRSANPSYSVMQEQASKIGRKVVLHSRQPMVGGINYYWVSVRMNPDASLLTELRARVSEVVVNGKKIPVACDSREVVRRMGYGVRHAGDDHSMAYRIPGLVTTNSGSLIGTYDVRWNSSVDLQERIDIGVSRSTDKGQTWEPMRIAMSFADIDGLPSGQNGVGDPAVLVDEKTGTIWVMAAWTHGMGNGRAWTNSMPGMEPMETPQLMLARSDDDGRTWSEPINITKQVKDPSWCFLLQGPGRGITMRDGTLVFAIQFIDKDRMPHAGIIFSKDHGETWHIHNPARSNTTEAQVAEVEPGVLMLNMRDNRGGARAVMTTRDLGRTWTEHVSHRTTLREPVCMASLIAVPAEKNVLGKDLLLFSNPDTTDGRRDITIKASLDGGVTWPYSLLLDEGDSWGYSCLTMIDSQTVGILYESSVAHITFQAAKLKAIVK	preferential activity for Neu5Gc over Neu5Ac in all tested conditions	pronounced sialidase activity by releasing Neu5Gc from all food tested			
C19: GH33 exo-sialidase from compost soil metagenomic fosmid clone C19, SEQ ID NO. 7 (protein, Environmental sample) MKRTGWLLLLVSGPALCQPPRGYSIPLIDLAAEAWRQTVVDREPGQYLGHPTTVLLEDGRTVLAVYPKGHGRGAIVYKRSRDGGRTWSARLPVPENWATSQETPTIHRVVDPRGRKRLILFSGLYPIRMSVSEDDGETWTPLAPIGNFGGVVAMASVERLRDGRYMALFHDDGRFLRGGGKPDRFVVYKTLSGDGGLTWSEPVPILSHPQAHLCEPGLLRSPDGRRIAILLRENSRKFNSFVSFSDDEGETWSEPRELPGALTGDRHTAVYARDGRLFISFRDTTHESPTRGDWVAWVGRFGDIENGREGQYRVRLMKNHKDLDCCYPGVLRLPDDTILTTTYGHWTPGEPPYIVSIRLRLSELDRRAQGAGR			only minor activity	significant hydrolysis; also recorded: significant activity	marked preference for Neu5Gc hydrolysis
C22: GH33 exo-sialidase from compost soil metagenomic fosmid clone C22, SEQ ID NO. 8 (protein, Environmental sample) MVIAWMAGVQCTAAALVDLGVTILDISGEPERQVIVDREPGQYLGHVSTVLLEDDKTILAVYPKGHGRGAIVLKRSEDGGRTWSGRLPVPASWATSKETPTIHRVVDARGRRRLLLWSGLYPARRALSDDDGRTWTELEPVGEWGGIVVMGFVEATRQPGHYVAMFHDDGRYFAAQPSTNRSMTLYLTRSSDGGVSWSSPVAVWSNSAVHLCEPGGIWSPDRRRLAVLLRENRRVNNSHIMFSDDEGHTWTTPVEMPLSRAGDRHTLRYTPDGRIVCVFRAVTPVGMRGRSFGQNEDVDTLGVGSPFEGDCVAWVGTWDDLVHNRPGQYYVRLLNNRKGWDTTYPGVEVLPDGTVVVTTYGHWNAGEPPYIRSVRFRLEELDRMAAKASQKP			only minor activity	significant hydrolysis; also recorded: significant activity	marked preference for Neu5Gc hydrolysis
